In patent US20220089741A1 (HUABO BIOPHARM SHANGHAI, published 2022):
Values belong to the binder of their own block, whether it stands above or below them.

Columns and labels:
[1] = biological target: T1, rhPD-L1-his protein (monkey, UniProt G7PSE7 19-238); assay: ELISA, rhPD-L1-his coated
T1 construct: Bought protein; also called monkey PD-L1 protein; Sino Biological #90251-C08H; not shown: C-terminal His tag

[2] = biological target: T2, huPD-L1-his protein (human, UniProt Q9NZQ7 19-239); assay: ELISA, huPD-L1-his coated at 1 ug/ml
T2 construct: Bought protein; also called human PD-L1-His protein; human PD-L1 protein; not shown: His tag
T2 sequence (Q9NZQ7 19-239 limits assumed): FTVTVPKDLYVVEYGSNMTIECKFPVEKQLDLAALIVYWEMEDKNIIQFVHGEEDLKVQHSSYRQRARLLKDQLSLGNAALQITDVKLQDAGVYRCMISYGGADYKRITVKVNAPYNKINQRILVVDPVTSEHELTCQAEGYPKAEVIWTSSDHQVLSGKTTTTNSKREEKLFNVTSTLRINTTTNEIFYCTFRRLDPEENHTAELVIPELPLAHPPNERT
Procedure: Specifically, 1 ug/ml huPD-L1-his protein (purchased from Sino Biological, #10084-H08H) was added to the ELISA plate at 50 ul/well, and coated at 2-8° C. for more than 12 hours. The raffinate of plate coating was discarded, 200 ul of 3% milk was added to each well, and blocked at room temperature for 1 hour. PBST not less than 200 uL was added to each well for washing once. The antibody sample to be tested was diluted to 100 ug/ml, then diluted 5 times for 11 gradients, and added to the ELISA plate at 100 uL/well. After incubation at room temperature for 1 hour, PBST no less than 200 uL was added to each well. After washing for 4 times, HRP-conjugated Rabbit Anti-Human IgG Fc Antibody (Luoyang Baiaotong Experimental Material Center, #C030222) diluted 25000 times with 3% milk-PBST was added as 100 uL/well. After incubating at room temperature for 1 hour, PBST not less than 200 uL was added to each well, washed 6 times and beat dry. 100 uL of TMB Substrate was added to each well. After 5 minutes of reaction at room temperature, 50 uL/well of 2M H2504 was added to terminate the reaction. The ELISA plate with stopped reaction was placed on the microplate reader, and the absorbance of OD450 value was read at 450 nm wavelength.

[3] = biological target: T3, huPD-L1-moFc (human, UniProt Q9NZQ7 19-238, limits assumed); assay: flow cytometry competition: blocking of huPD-L1-moFc binding to cells expressing human PD-1
T3 construct: also called 800023, Huabo Bio; not shown: mouse Fc
T3 sequence (Q9NZQ7 19-238 limits assumed): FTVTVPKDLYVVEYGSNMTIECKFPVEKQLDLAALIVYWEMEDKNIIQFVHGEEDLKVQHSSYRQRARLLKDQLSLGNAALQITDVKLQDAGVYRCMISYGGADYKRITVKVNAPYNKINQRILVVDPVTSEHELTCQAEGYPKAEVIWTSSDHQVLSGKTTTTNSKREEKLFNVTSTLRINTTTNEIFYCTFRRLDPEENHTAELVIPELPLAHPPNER
Procedure: The suspension of cells (3C2-huPD-1-6F4, Huabo Bio) expressing human PD-1 in the logarithmic growth phase was centrifuged (1000 rpm×5 min) to discard the culture medium, and the cells were resuspended with 1% BSA/PBS to a living cell density of 1×10⁶/ml. […] The reacted 96-well U-shaped plate was resuspended with 1% BSA/PBS, centrifuged (300 g×3 min) to discard the supernatant, and washed like this for twice. […] The reacted 96-well U-shaped plate was resuspended with 1% BSA/PBS, centrifuged (300 g×3 min) to discard the supernatant, and washed like this for three times. Finally, the plate was resuspended with 100 uL of 1% BSA/PBS for each well and the fluorescence intensity of the first channel was detected by flow cytometry (BD, #Accuri C6).

[4] = biological target: T2, huPD-L1-his protein; assay: SPR (Biacore 8K), antibody captured on anti-human capture CM5 chip, huPD-L1 as analyte, 1:1 model
Procedure: In this experiment, SPR method was used to determine antibody-antigen binding kinetics and affinity.
Anti-Human Capture-CM5 chip (GE, #BR-1005-30) was prepared according to the coupling method of Human Antibody Captrue Kit (GE, #BR-1008-39) and Amino Coupling Kit (GE, BR-1000-50). The chip was balanced at room temperature for 20-30 min, and loaded into a Biacore 8K instrument. B5D1 was diluted to the experimental working concentration with equilibration buffer. The antigen was diluted to 50 nM with equilibration buffer, then diluted 3 times for 7 concentration gradients, and 2 zero concentrations (i.e. equilibration buffer) and 1 repeated concentration (generally is a repeat of lowest concentration) were set. In the order of antibody, antigen huPD-L1 (Sino Biological, #10084-H08H), and regeneration, 10 antigen concentrations (2 zero concentrations, 7 gradient concentrations, and 1 repeat concentration) were cyclically subjected to experimental analysis. The antigen injection flow rate was 30 uL/min, the binding time was 120 seconds, and the dissociation time was 600 seconds.

[5] = biological target: human PD-L1 protein (hybridoma screening) (human, UniProt Q9NZQ7 19-239, limits assumed); assay: SPR, hybridoma monoclone
Chain of human PD-L1 protein (hybridoma screening) (Q9NZQ7 19-239 limits assumed): as the sequence (Q9NZQ7 19-239 limits assumed) above

T1 sequence (G7PSE7 entry or part of it limits assumed): as the sequence (Q9NZQ7 19-238 limits assumed) above, with A33T, A34S, S62N, R68Q, Q82R, F173L, T185A, T192I, H215L counted along it

- EC50 [1]: 0.115 µg/mL
- EC50 [2]: 0.0485 µg/mL
- IC50 [3]: 0.00242 µg/mL
- Kd [4]: 0.94 nM
- koff [4]: 0.000219 s⁻¹
- kon [4]: 233000 M⁻¹ s⁻¹
B1: humanized antibody 900339 (antibody, V domains shown)
VH: QVQLVQSGAEVKKPGASVKVSCKASGYAFTGYTIHWVRQAPGQRLEWMGWFYPGSGTLKYSEKFQGRVTITRDKSLSTAYMELSSLRSEDTAVYYCARHGTGTLMAMDYWGQGTLVTVSS
VL: DVVMTQTPLSLSVTPGQPASISCKSSQSLANSYGNTYLSWYLHKPGQSPQLLIYGISNRFSGVPDRFSGSGSGTDFTLKISRVEAEDVGVYYCLQGTHQPPTFGQGTKLEIK
notes: Humanized from the chimeric antibody; Expressed in CHO-S cells; also called humanized PD-L1 monoclonal antibody

- Kd [5]: 2.74 nM
B2: 36C06-D8 (antibody, V domains shown)
VH: QVQLQQSGAELVKPGASVKLSCKASGYAFTGYTIHWVKQRSGLGLEWLGWFYPGSGTLKYNEKFKDKATLTADKSSSTVYLELSRLTSEDSAVYFCARHGTGTLMAMDYWGQGTSVTVSS
VL: DVVVTQTPLSLPVSFGDQVSISCRSSQSLANSYGNTYLSWYLHKPGQSPQLLIYGISNRFSGVPDRFSGSGSGTDFTLKISTIKPEDLGMYYCLQGTHQPPTFGGGTKLEIK
notes: also called hybridoma 36C06/D8; mouse monoclonal antibody against human PD-L1

- EC50 [1]: 0.14 µg/mL
- EC50 [2]: 0.0433 µg/mL
- IC50 [3]: 0.00199 µg/mL
- Kd [4]: 1.34 nM
- koff [4]: 0.000312 s⁻¹
- kon [4]: 233000 M⁻¹ s⁻¹
B3: chimeric antibody 900289 (antibody, V domains shown)
VH: B2 VH
VL: B2 VL
notes: Expressed in CHO-S cells; also called chimeric IgG1-kappa antibody; human-mouse chimeric antibody
